Experimental data from US20220315908A1, “NOVEL GARDNERELLA ENDOLYSINS AND USES THEREOF” (priority 2019, published 2022).

How the values were obtained:
[1] = tested on: all tested Gardnerella strains; assay: MIC and MBC microbroth dilution, stated over all tested strains; type: cell-based; settings: first round: […]10^7 CFU/ml, 48 h anaerobic (FIG. 14)
Description: One of the main deficiencies in the treatment of BV is the high rate of recurrence in many women, which leads to repeated administration of antibiotics and concomitant destabilization of the microbiome and other side effects. The minimal inhibitory concentration (MIC) and minimal bactericidal concentration (MBC) on Gardnerella cells of the strains also used for the endolysin activity assays were then measured using the method described in Reference Example 6 and 7. […] Essentially, Gardnerella suspensions at 2.5×10^7 CFU/ml were incubated with the concentration of antibiotics as indicated and incubated for 48 h at 37° C. under anaerobic conditions. […] OD(610) was measured at the beginning and the end of the experiment. At the end of the experiment, 2 ul of each reaction mix was spotted on agar to determine the MBC.
The conditions under which MIC and MBC were measured are more rigorous than the standard.
Example 7—Activity assays of a representative (H2B10) of domain swapped endolysins on the growth in suspension of different Gardnerella strains. […] The conditions under which MBC was measured are more rigorous than the standard. […] In general, it is known, that antibiotics only insufficiently eradicate the Gardnerella biofilm, a hallmark of BV, which is one suspected reason for the reported very high recurrence rate of BV. Despite leaving residual viable biofilm, antibiotics wipe parts of the beneficial organisms of the vaginal microbiome which then opens an ecological niche for other pathogens, e.g. fungi.
Bacteria were plated from cryo stock on BD Choc Agar plates (Gardnerella) and incubated at 37° C. for 48 h under anaerobic conditions. Colonies were scraped from the plate, resuspended in Hardy Broth or NYC-III-HS-pH 5.0, and the suspension adjusted to OD (610 or 620 nm as indicated) 0.05. It has to be noted that two Tecan Microplate readers, having respectively a 610 nm or 620 nm filter, have been used interchangeably in the experiments. Although it doesn't make any difference for the experiments, the exact wavelength used is specified in each example. Antibiotics were prepared as 20× stocks for each of the required final concentrations. […] OD (610-620 as indicated) at the start of the reaction was measured, then the plate was incubated at 37° C. for 48 h under anaerobic conditions. After that, the OD (610-620 as indicated) was measured again for MIC determination, where MIC was defined as the lowest concentration of antibiotic where the OD (610-620 as indicated) was not above the level measured at the beginning of the experiment. […] After incubation, cell growth on each spot was evaluated, and the MBC defined as the lowest concentration of antibiotics where no bacteria grew on the plate.

[2] = tested on: G. vaginalis sensu stricto strain Gv_9; assay: Quantitative reduction in viable CFU assay in bacterial suspension; type: cell-based, Gardnerella vaginalis sensu stricto; settings: for median surviving cells after incubation with imidazole: 5×10^7 CFU/ml start, 5 hours 37° C. anaerobic
Description: The lysis activity on the four main species of Gardnerella of 91 constructs (natural and domain-swapped endolysins) was quantitatively assessed using the method described in Reference Example 2. […]
(§1) The results are shown in FIGS. 8A to 8D together with Tables 5A to 5C. In FIGS. 8A to 8D, the logarithmic Y axis depicts the count of surviving cells. The dotted line indicates the limit of detection (LOD) given by plating of 2 ul of the reaction mix (500 CFU/ml). Each combination of the natural 10 H-domains and the natural 9 B-regions was assessed, including the natural endolysins (H1B1, H2B2, H3B3, etc.), plus H6B6. […] The activity of each construct was measured on each of the 4 main Gardnerella species G. vaginalis sensu stricto, G. leopoldii, G. piotii, and G. swidsinkii. All conditions have been measured in triplicate. The survival after 5 hours incubation at pH 5.0 under anaerobic conditions with endolysins vs. buffer was measured by quantitative plating. The values indicate the log 10 of the ratio of surviving CFU for treated vs. untreated cells. The average of the triplicate measurements is used. In tables 5A and 5B, high negative log 10 values, e.g. −6.7, −5.5, −4.8 etc. are associated with high enzymatic activity, while log 10 values closer to zero or even positive log 10 values are associated with low or no enzymatic activity. […] Inversely, a reduction value of −3.7 means a 10^3.7-fold (=5012-fold) reduction of viable CFU in treated sample vs. untreated control.
(§2) Gardnerella cells were recovered from cryo stock by plating on Chocolate Agar plates (Beckton Dickinson) and incubating for 48 h at 37° C. under anaerobic conditions. For Lactobacilli, BD Schaedler/5% sheep blood agar plates were used instead. Colonies were scraped from the plate, resuspended in Hardy Broth or NYC-III-HS-5.0 at the pH as indicated, and the suspension adjusted to OD (610 or 620 nm as indicated) 0.1. It has to be noted that two Tecan Microplate readers, having respectively a 610 nm or 620 nm filter, have been used interchangeably in the experiments. Although it doesn't make any difference for the experiments, the exact wavelength used is specified in each example. If not stated otherwise, 90 μl cell suspension was mixed with 10 μl endolysin solution, for the different species/endolysin combinations, in 384-well plates. OD(610-620 nm as indicated) was measured at the beginning of the reaction and at the end, either as two measurement points or as a continuous kinetic in a Tecan F200 Microplate reader. The reactions were incubated for 5 hours (or otherwise the time indicated) at 37° C. under anaerobic, micro-aerophilic or aerobic conditions as indicated. Anaerobic conditions intend that oxygen was fully depleted from the container in which the bacteria are incubated (Sigma-Aldrich anaerobic jar or sealable lunch box) with an anaerobic sachet, and the lack of oxygen was confirmed with an anaerobic indicator inside the container. Where micro-aerophilic conditions are indicated, the candle-in-a-jar method was used (tea candle lit in an appropriate sealable container, which reduces oxygen levels until the flame dies out). Then each well was diluted in 5 steps (10^−1 to 10^−5) using 96-U-well bottom plates, and 2 μl of each dilution of each reaction mix are plated on BD Chocolate agar plates or BD Schaedler/5% sheep blood agar plates for Gardnerella and Lactobacilli, respectively, for detecting and quantifying surviving CFU. Detection plates were incubated at 37° C. for 48 hours under anaerobic conditions.

[3] = tested on: G. leopoldii strain Gv_11; assay: as above; type: cell-based, Gardnerella leopoldii; settings: 5 hours, pH 5.0, anaerobic, 10 ul endolysin (0.2 mg/ml where possible) + 90 ul 5e7 CFU/ml, average of triplicate
Description: (§3) The lysis activity on the four main species of Gardnerella of 91 constructs (natural and domain-swapped endolysins) was quantitatively assessed using the method described in Reference Example 2. Briefly, 90 ul 5e7 CFU/ml of the indicated strain were incubated for 5 hours at pH 5.0 under anaerobic conditions with 10 ul endolysin (concentration adjusted to 0.2 mg/ml where possible, see Table 4).
as §1, §2

G. piotii strain Gv_17 = assay: as above; type: cell-based, Gardnerella piotii; settings: 5 hours, pH 5.0, anaerobic, 10 ul endolysin (0.2 mg/ml where possible) + 90 ul 5e7 CFU/ml, average of triplicate
Description: as §3, §1, §2

[4] = tested on: G. swidsinskii strain Gv_23; assay: as above; type: cell-based, Gardnerella swidsinskii; settings: 5 hours, pH 5.0, anaerobic, 10 ul endolysin (0.2 mg/ml where possible) + 90 ul 5e7 CFU/ml, average of triplicate
Description: as §3, §1, §2

[5] = tested on: four Gardnerella strains (Gv_9, Gv_11, Gv_17, Gv_23); assay: CFU reduction averaged across the four Gardnerella strains, with activity ranks; type: cell-based
Description: as §3, §1
as §2, with “out).” for “out). Then each well was diluted in 5 steps (10^−1 to 10^−5) using 96-U-well bottom plates, and 2 μl of each dilution of each reaction mix are plated on BD Chocolate agar plates or BD Schaedler/5% sheep blood agar plates for Gardnerella and Lactobacilli, respectively, for detecting and quantifying surviving CFU. Detection plates were incubated at 37° C. for 48 hours under anaerobic conditions.”

With `CCC[C@@H]1C[C@@H](C(=O)N[C@@H]([C@H]2O[C@H](SC)[C@H](O)[C@@H](O)[C@H]2O)[C@H](C)Cl)N(C)C1` [Clindamycin] the “MIC over all Gardnerella strains” value [1] was greater than 8 µg/mL.

For `c1c[nH]cn1` [imidazole], the “median surviving cells after incubation with imidazole” value ([2]; pH 6.0) was 1×10^6 CFU/ml and the “median surviving cells after incubation with imidazole” value ([2]; pH 7.0) was 3×10^4 CFU/ml.

B1: H6B6: natural Gardnerella prophage endolysin from strain 1400E, truncated at the C-terminus (protein)
chain: MSKKGIDVSVWQGDIDFNAVKASGVEFVIIRAGYGIGCKDKWFEQNYRKAKTCGLDVGAYWYSYANSGFEAAEEAQSCVNMLSGKSFEYPVYFDLEEKSQLNRGRAFCDSLITSFCSKLESCGYYAGFYTSLSTANNLVSAHVRNRYALWIAQWNTHCDYQGSYGLWQYSSSGSVPGVAGRVDMDYAYKNYPSIIKNAGLNGCKNGGSNQAARTSSIDDVAREVINGAWGNGNERKQRLTQAGYDYASVAK
modifications: EL6_strain_1400E_frameshift
notes: natural Gardnerella prophage endolysin from strain 1400E, truncated at the C-terminus
B1 was tested, and the “log 10 of the ratio of surviving CFU for treated vs. untreated cells” value (“log 10 of the ratio of surviving CFU” for short) ([2]; Gv_9, 5 hours, pH 5.0, anaerobic, 10 ul endolysin (0.2 mg/ml where possible) + 90 ul 5e7 CFU/ml, average of triplicate) was 0.1 log 10, the “log 10 of the ratio of surviving CFU” value [3] was 0.2 log 10 and the “log 10 of the ratio of surviving CFU” value (G. piotii strain Gv_17) was −0.2 log 10. The “log 10 of the ratio of surviving CFU” value [4] was −0.1 log 10, the “killing activity against Gardnerella, in words” value ([5]; across the Gardnerella strains tested) was “complete inactivity” and the “average of the log 10 activities of each construct across the four Gardnerella strains” value ([5]; pH 5.0, 5 hours, anaerobic) was 0.0 log 10. The “activity rank of all endolysins” value ([5]; rank 1-91, based on the data of Table 5B) was 86.
